B1: SAT2 (parent)
chain: LTEAEGWHFFCFQGEATRKLAGK
B2: RSPH3 (parent)
chain: FIPAKTGKDVATQILEGELFDFDL

Variants of: B1
Experiment: protein stability index of a GFP-peptide fusion (GPS, HEK-293T) (PSI 1-6); higher = more stable
Details: c terminus: native
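Note: lentivirally expressed fusions sorted by FACS into six bins by GFP to DsRed ratio, PSI derived from sequencing read proportions per bin multiplied by bin number.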

Protein stability index of substitutions, site by site:
A4: W 2.27 | G 2.68 | H 3 | P 3.18 | M 1.66 | S 2.66 | N 2.87 | E 3.14 | V 1.64 | L 2.14
L20: G 3.47 | K 3.3 | E 3.6 | H 2.64 | T 3.52 | M 2.91 | A 2.36 | V 1.98
G22: C 1.07 | S 1.8 | V 3.23 | E 2.54 | Q 3.22 | L 1.81
E15: A 1.59 | K 3.63 | P 1.97 | M 1.57 | S 1.74
L1: M 2.34 | R 2.09 | A 2.58 | C 2.48 | H 1.48 | S 3.02 | N 3.57
K23: M 1.01 | S 2 | N 2.85 | H 1.49 | Q 2.81 | L 1.86 | R 1.51 | T 2.33 | V 1.49
G6: S 2.27 | K 2.15 | Q 2.6 | I 2.49
F12: Q 4.04 | R 2.87 | W 2.35 | S 3.73
K19: G 2.25 | M 1.89 | D 2.76 | A 2.35 | C 2.41 | N 2.93 | W 2
A21: K 2.5 | N 2.55 | Q 3.17
C11: P 3.7 | Y 2.12 | K 3.5 | V 2.37
G14: L 1.73 | K 2.23 | M 1.76 | N 2.76 | D 3.17 | H 1.9 | V 2.33
E5: S 2.17 | C 1.26 | A 2.17 | N 1.73 | P 1.86
H8: P 2.97 | I 2.19 | Q 2.15 | A 2.21 | C 1.78 | D 3.44
T2: G 1.76 | M 2.71 | Q 2.48 | A 1.38 | S 2.34 | W 1.11 | C 1.99 | I 3.08
A16: C 2.46 | E 2.79 | Q 2.58 | N 2.67 | M 2.1 | H 2.63 | F 1.59 | V 2.3
R18: F 1.5 | A 2.09 | H 2.3 | M 1.71 | C 1.92 | T 2.03
F10: K 3.77 | D 4.69 | A 3.48 | G 4.09 | S 4.25 | E 4.18 | W 1.94
T17: Y 2.01 | I 1.35 | F 1.61 | N 2.53 | H 1.77
F9: C 3.12 | P 4.17 | R 3.77 | A 3.78 | N 3.52 | G 3.69 | L 1.85 | I 2.23
Q13: M 1.07 | K 2.63 | V 1.9 | L 1.67 | R 1.93 | P 2.94
E3: T 2.11 | Y 2.18 | K 1.25 | N 1.48 | G 1.78
W7: Y 2.58 | Q 4.29 | I 2.63 | M 3.5 | E 4.9 | K 3.88

Variants of: B2
Experiment: as above
Details: c terminus: a fixed tail appended

Protein stability index, by site and new letter:
I14: Q 1.79 | N 1.57 | A 2.07 | W 2.71 | D 2.94 | L 2.27
K5: W 1.57 | H 1.92 | R 1.75 | F 2.46 | Y 1.88 | N 2.71 | D 2.66 | V 1.72
F1: M 3.93 | A 4.14 | C 3.55 | W 2.66 | S 4.66 | R 4.15 | I 3.89 | Y 1.9 | E 5.01
F22: R 2.42 | I 1.68 | G 2.81 | V 2.21 | S 2.86 | N 2.87 | W 1.91
D21: W 3.1 | P 2.47 | N 1.53 | S 2.54 | Y 2.78 | T 3.06 | R 1.8
Q13: I 2.43 | D 2.08 | G 2.65 | E 1.65 | R 1.58 | F 2.07 | T 1.99
E16: N 2.34 | M 3.38 | S 2.76
V10: M 1.58 | W 2.75 | F 1.9 | A 1.84 | T 2.08 | P 1.61 | Q 1.82 | Y 1.99 | C 1.67
E18: V 2.46 | D 2.04 | P 1.87 | L 2.42 | H 2 | F 3.44 | M 2.73 | K 2.2
K8: N 2.06 | A 2.13 | D 2.22 | Q 2.1 | I 1.74 | T 1.6
D23: F 1.34 | I 1.24 | W 2.51 | R 1.42 | C 2.08 | E 1.89 | T 2.24 | M 1.42 | L 1.98
A11: G 2.04 | K 2.24 | N 1.68 | V 1.94 | I 2 | P 1.78 | D 2.48 | T 1.91
G7: E 2.08 | H 2.08 | L 2.12 | K 2.03 | M 1.43 | P 2.82 | V 2.2 | T 1.77
L24: K 2.79 | P 2.47 | G 2.75 | V 1.85 | N 2.43 | A 2.67 | M 2.23 | I 2 | H 2.68 | R 2.31
L19: A 2.2 | S 1.98 | N 1.93 | V 1.74 | T 2.28 | H 2.01 | M 1.83
T12: N 1.89 | R 2.55 | G 1.7 | E 2.04 | A 2.18 | F 2.73 | H 1.43 | S 1.82
A4: H 1.62 | M 2.74 | Q 2.05 | S 1.64 | I 1.62 | N 2.35 | K 1.9 | D 2.25
D9: I 1.42 | Q 1.68 | F 2.59 | H 2.03 | A 1.25 | T 1.77 | N 3.27 | W 3.31
L15: M 2.03 | G 1.89 | P 2.02 | V 1.94 | I 1.87
P3: G 2.5 | I 1.97 | D 2.63 | L 2.71 | T 2.24 | K 2.4 | W 2.43 | Y 1.52 | V 1.59 | F 2.2 | E 2.83 | A 2.27
F20: H 1.59 | T 2.13 | W 2.26 | I 1.72 | M 1.88 | E 2.6 | P 2.37
I2: W 2.3 | R 3.72 | N 2.83 | M 3.26 | F 2.86 | H 2.02 | T 2.85 | P 3.04 | L 3.02 | A 1.79 | Q 3.04 | E 4.16 | G 3.73
T6: P 1.42 | K 2.22 | C 1.29 | S 1.71 | L 1.87
G17: E 3 | K 1.93 | R 2.15 | P 1.37 | A 2.14 | C 2.54 | I 2.31 | N 1.32 | Y 2.06 | H 2.34 | T 2.11 | F 2.72

— the supplement of paper PMC10567573
